Measurements from patent US20260152555A1 (HUAHUI HEALTH, published 2026).

Experiments:
[1] = molecular target: T1, human CD112R, full length, expressed on cells (YTS-hCD112R; Jurkat-NFAT-luc-hCD112R) (human, UniProt Q6DKI7 42-326); test: cell-based or functional assay
T1 sequence (looked up): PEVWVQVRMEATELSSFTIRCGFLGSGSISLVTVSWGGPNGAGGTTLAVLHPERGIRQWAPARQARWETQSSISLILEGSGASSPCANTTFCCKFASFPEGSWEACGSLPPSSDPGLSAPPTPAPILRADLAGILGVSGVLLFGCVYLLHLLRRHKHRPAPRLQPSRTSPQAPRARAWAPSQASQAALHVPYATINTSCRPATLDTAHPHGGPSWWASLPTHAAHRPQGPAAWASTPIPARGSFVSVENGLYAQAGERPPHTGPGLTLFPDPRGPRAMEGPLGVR

[2] = molecular target: V90A, W100A, or E145A mutation of hCD112R (hCD112R-ECD-mFc variants, as a group); test: SPR, multi-cycle, H733-hIgG4 captured by anti-hFc Ab, hCD112R-ECD-mFc variants as analytes (3.125-100 nM)

B1: H733 (humanized Ab composed of 733-VH-humanV2 and 733-VL-human-C91S) (antibody, human IgG4, V domains shown)
VH: QVQLVQSGAEVKKPGASVKVSCKASGYTFTNYLIEWVRQAPGQGLEWMGVINPGHGFTNYAQKFQGRVTMTRDTSTSTVYMELSSLRSEDTAVYYCARGEWDWYFDVWGQGTTVTVSS
VL: DIQLTQSPSFLSASVGDRVTITCKASQNVGTAVAWYQQKPGKAPKLLIYSTSNRYTGVPSRFSGSGSGTEFTLTISSLQPEDFATYYCQQSSSYPFTFGGGTKVEIK
notes: also called H733-hIgG4; H733 mAb (hIgG4 form)
With B1 the “EC50 of luciferase production, Jurkat-NFAT-luc-hCD112R reporter cells with CHO-OKT3scFv_hCD112 cells” value [1] was 0.39 µg/mL and the fold decrease of binding as compared with WT hCD112R [2] was 4 to 15 fold.
